Data: US20070036789A1 (NATIONAL CANCER CENTER, published 2007)
Where a chain is given by its changes, count along the chain named. Blank lines part the entries; values can stand above or below the binder they belong to.

Experiments:
[1] = target: T1, phage containing the peptide of SEQ ID NO: 32; test: phage peptide library panned on the coated Fab, clones selected by EIA
T1 construct: The phage coat fusion is not described
T1 peptide: HHPHFKPVSNSR
Experimental: (§1) A 96-well plate (costar No. 3690) was coated with anti-HGF H61 Fab or anti-HGF H68 Fab dissolved in 25 μl of TBS solution at a concentration of 10 μg/ml per well. PHD peptide library (phage display of combinatorial peptide library) (new England Biolob.) was added to the well plate, and then, the well plate was kept for 2 hrs at room temperature. The well plate was washed with 0.5% (v/v) Tween 20 in PBS and eluted with 0.1 M HCl-glycine (pH 2.2). The washing steps were increased from 5 times in the first round to 10 times in the second round and 15 times in the subsequent rounds. Typically seven rounds of panning were carried out. After the last round of panning, the phage clones containing anti-HGF H61 Fab or anti-HGF H68 Fab were selected by EIA using anti-HGF H61 Fab or anti-HGF H68 Fab-coated ELISA plate and horseradish peroxidase-conjugated anti-M13 phage goat monoclonal antibody (Roche). The selected clones were subjected to nucleotide sequencing and the amino acid sequences were determined from the analyzed nucleotide sequences.
(§2) Nucleotide sequencing was performed according to the dye-labeled primer sequencing method (Chung et al., supra) using a sequencing primer of SEQ ID NO: 31. As a result, peptides encoding anti-HGF H61 and H68 Fabs deduced from the analyzed nucleotide sequences had the amino acid sequences of SEQ ID NOs: 32 and 33, respectively.

[2] = target: T2, phage containing the peptide of SEQ ID NO: 33; test: as above
T2 construct: The phage coat fusion is not described
T2 peptide: KSLSRHDHIHHH
Experimental: as §1, §2

c-Met = target: T3, c-Met (UniProt P08581 25-932, limits assumed); test: SPR, c-Met on CM5 chip, Fab injected alone
T3 construct: also called HGF receptor
Experimental: To ascertain the fact that anti-HGF H68 Fab can inhibit the binding of HGF to c-Met in real time, c-Met was coupled to CM5 sensor chip through an amine coupling method. Thereafter, HGF alone was injected at a concentration of 50 nM, and premixed with anti-HGF H68 Fab of 5 different concentrations (50 nM, 250 nM, 500 nM, 1 μM and 1.5 μM) and soluble c-Met of 5 different concentrations (50 nM, 100 nM, 200 nM, 400 nM, 600 nM), respectively. Binding interaction was allowed to proceed in PBS buffer containing 0.005% surfactant P20 at a flow rate of 30 μl/min at 25° C. The surface was regenerated with 1 M NaCl/50 mM NaOH.
There was no binding of HGF in case when anti-HGF H68 Fab alone was injected.

T3 sequence (P08581 25-932 limits assumed): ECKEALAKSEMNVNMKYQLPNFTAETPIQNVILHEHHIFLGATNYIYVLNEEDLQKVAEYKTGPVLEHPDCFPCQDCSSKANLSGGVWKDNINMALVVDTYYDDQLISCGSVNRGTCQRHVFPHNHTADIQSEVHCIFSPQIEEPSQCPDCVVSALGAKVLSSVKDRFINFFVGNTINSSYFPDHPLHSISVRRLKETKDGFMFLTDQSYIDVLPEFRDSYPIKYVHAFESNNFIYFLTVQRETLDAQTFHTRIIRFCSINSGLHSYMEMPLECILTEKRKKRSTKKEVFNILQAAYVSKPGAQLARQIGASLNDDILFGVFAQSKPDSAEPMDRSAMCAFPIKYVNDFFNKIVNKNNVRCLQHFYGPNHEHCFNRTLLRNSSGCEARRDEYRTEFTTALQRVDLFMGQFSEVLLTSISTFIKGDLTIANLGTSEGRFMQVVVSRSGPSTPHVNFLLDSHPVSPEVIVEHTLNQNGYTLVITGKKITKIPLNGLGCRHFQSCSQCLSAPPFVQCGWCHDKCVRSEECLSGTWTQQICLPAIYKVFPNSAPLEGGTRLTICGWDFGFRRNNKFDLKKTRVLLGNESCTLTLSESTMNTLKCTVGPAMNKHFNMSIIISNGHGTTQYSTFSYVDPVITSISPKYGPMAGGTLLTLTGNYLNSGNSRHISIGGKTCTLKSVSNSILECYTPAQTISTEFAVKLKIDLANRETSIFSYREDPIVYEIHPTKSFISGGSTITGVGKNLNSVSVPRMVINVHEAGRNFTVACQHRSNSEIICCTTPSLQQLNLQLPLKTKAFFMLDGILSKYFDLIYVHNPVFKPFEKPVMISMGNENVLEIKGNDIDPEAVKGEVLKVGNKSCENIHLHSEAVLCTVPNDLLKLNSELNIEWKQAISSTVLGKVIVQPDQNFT

binding result [1]: binds
B1: anti-HGF H61 Fab (Fab, V domains shown)
VH: QEQLMESGGRLVNPGESLTLTCKASGFTFSSYYMSWVRQAPGKGLEWIGYIGTSSGTTYYANSVKGRFTISSDNAQNTVFLRMTSLTDSDTATYFCARGLGRINLWGPGTLVTVSS
VL: ELVLTQTPSSMSAAVGGTVTINCQASQSVSNYLAWYQQKPGQPPKLLIYRASTLASGVPSRFSGSGSGTEFTLTISGMKAEDAATYYCQSGYYSAGATFGGGTNVEIKR
notes: Rabbit/human chimeric Fab: rabbit VH and VL joined to human CH1 and Ckappa from pComb3X; purified through its HA tag; also called clone 61; clone 61 Fab

binding result [1]: binds
binding result [2]: binds
binding result (c-Met): no binding
B2: anti-HGF H68 Fab (Fab, V domains shown)
VH: B1 VH with E2Q, M5V, S31T, R82Q
VL: B1 VL with V3D, M11V, Y32L, R50G, T53N, A55E, S63R, G101A
notes: Rabbit/human chimeric Fab: rabbit VH and VL joined to human CH1 and Ckappa from pComb3X; purified through its HA tag; also called clone 68; clone 68 antibody
